Test results reported in patent US11653679B2, “High-purity steviol glycosides” (PureCircle Sdn Bhd, priority 2014, dated 2023).

B1: UGT76G1var37: UGT76G1 variant, mutations E229A_L379G_I407V (protein, UniProt Q6VAB4 1-458, looked up, variant E229A L379G I407V)
UDP-glycosyltransferase 76G1: MENKTETTVRRRRRIILFPVPFQGHINPILQLANVLYSKGFSITIFHTNFNKPKTSNYPHFTFRFILDNDPQDERISNLPTHGPLAGMRIPIINEHGADELRRELELLMLASEEDEEVSCLITDALWYFAQSVADSLNLRRLVLMTSSLFNFHAHVSLPQFDELGYLDPDDKTRLEEQASGFPMLKVKDIKSAYSNWQILKEILGKMIKQTKASSGVIWNSFKELEESALETVIREIPAPSFLIPLPKHLTASSSSLLDHDRTVFQWLDQQPPSSVLYVSFGSTSEVDEKDFLEIARGLVDSKQSFLWVVRPGFVKGSTWVEPLPDGFLGERGRIVKWVPQQEVLAHGAIGAFWTHSGWNSTLESVCEGVPMIFSDFGGDQPLNARYMSDVLKVGVYLENGWERGEVANAIRRVMVDEEGEYIRQNARVLKQKADVSLMKGGSSYESLESLVSYISSL
B2: UGT76G1var43: UGT76G1 variant, mutations S241I_P272A_V279I (protein, UniProt Q6VAB4 1-458, looked up, variant S241I P272A V279I)
UDP-glycosyltransferase 76G1: MENKTETTVRRRRRIILFPVPFQGHINPILQLANVLYSKGFSITIFHTNFNKPKTSNYPHFTFRFILDNDPQDERISNLPTHGPLAGMRIPIINEHGADELRRELELLMLASEEDEEVSCLITDALWYFAQSVADSLNLRRLVLMTSSLFNFHAHVSLPQFDELGYLDPDDKTRLEEQASGFPMLKVKDIKSAYSNWQILKEILGKMIKQTKASSGVIWNSFKELEESELETVIREIPAPIFLIPLPKHLTASSSSLLDHDRTVFQWLDQQAPSSVLYISFGSTSEVDEKDFLEIARGLVDSKQSFLWVVRPGFVKGSTWVEPLPDGFLGERGRIVKWVPQQEVLAHGAIGAFWTHSGWNSTLESVCEGVPMIFSDFGLDQPLNARYMSDVLKVGVYLENGWERGEIANAIRRVMVDEEGEYIRQNARVLKQKADVSLMKGGSSYESLESLVSYISSL
B3: UGT76G1var41: UGT76G1 variant, mutations L246F_A385T_K393G (protein, UniProt Q6VAB4 1-458, looked up, variant L246F A385T K393G)
UDP-glycosyltransferase 76G1: MENKTETTVRRRRRIILFPVPFQGHINPILQLANVLYSKGFSITIFHTNFNKPKTSNYPHFTFRFILDNDPQDERISNLPTHGPLAGMRIPIINEHGADELRRELELLMLASEEDEEVSCLITDALWYFAQSVADSLNLRRLVLMTSSLFNFHAHVSLPQFDELGYLDPDDKTRLEEQASGFPMLKVKDIKSAYSNWQILKEILGKMIKQTKASSGVIWNSFKELEESELETVIREIPAPSFLIPFPKHLTASSSSLLDHDRTVFQWLDQQPPSSVLYVSFGSTSEVDEKDFLEIARGLVDSKQSFLWVVRPGFVKGSTWVEPLPDGFLGERGRIVKWVPQQEVLAHGAIGAFWTHSGWNSTLESVCEGVPMIFSDFGLDQPLNTRYMSDVLGVGVYLENGWERGEIANAIRRVMVDEEGEYIRQNARVLKQKADVSLMKGGSSYESLESLVSYISSL
B4: UGT76G1var46: UGT76G1 variant, mutations F22L_Q266E_I295M (protein, UniProt Q6VAB4 1-458, looked up, variant F22L Q266E I295M)
UDP-glycosyltransferase 76G1: MENKTETTVRRRRRIILFPVPLQGHINPILQLANVLYSKGFSITIFHTNFNKPKTSNYPHFTFRFILDNDPQDERISNLPTHGPLAGMRIPIINEHGADELRRELELLMLASEEDEEVSCLITDALWYFAQSVADSLNLRRLVLMTSSLFNFHAHVSLPQFDELGYLDPDDKTRLEEQASGFPMLKVKDIKSAYSNWQILKEILGKMIKQTKASSGVIWNSFKELEESELETVIREIPAPSFLIPLPKHLTASSSSLLDHDRTVFEWLDQQPPSSVLYVSFGSTSEVDEKDFLEMARGLVDSKQSFLWVVRPGFVKGSTWVEPLPDGFLGERGRIVKWVPQQEVLAHGAIGAFWTHSGWNSTLESVCEGVPMIFSDFGLDQPLNARYMSDVLKVGVYLENGWERGEIANAIRRVMVDEEGEYIRQNARVLKQKADVSLMKGGSSYESLESLVSYISSL
B5: UGT76G1var38: UGT76G1 variant, mutations F41L_I295M_F377C (protein, UniProt Q6VAB4 1-458, looked up, variant F41L I295M F377C)
UDP-glycosyltransferase 76G1: MENKTETTVRRRRRIILFPVPFQGHINPILQLANVLYSKGLSITIFHTNFNKPKTSNYPHFTFRFILDNDPQDERISNLPTHGPLAGMRIPIINEHGADELRRELELLMLASEEDEEVSCLITDALWYFAQSVADSLNLRRLVLMTSSLFNFHAHVSLPQFDELGYLDPDDKTRLEEQASGFPMLKVKDIKSAYSNWQILKEILGKMIKQTKASSGVIWNSFKELEESELETVIREIPAPSFLIPLPKHLTASSSSLLDHDRTVFQWLDQQPPSSVLYVSFGSTSEVDEKDFLEMARGLVDSKQSFLWVVRPGFVKGSTWVEPLPDGFLGERGRIVKWVPQQEVLAHGAIGAFWTHSGWNSTLESVCEGVPMIFSDCGLDQPLNARYMSDVLKVGVYLENGWERGEIANAIRRVMVDEEGEYIRQNARVLKQKADVSLMKGGSSYESLESLVSYISSL
B6: UGT76G1var40: UGT76G1 variant, mutations T263S_Q266E_S375R (protein, UniProt Q6VAB4 1-458, looked up, variant T263S Q266E S375R)
UDP-glycosyltransferase 76G1: MENKTETTVRRRRRIILFPVPFQGHINPILQLANVLYSKGFSITIFHTNFNKPKTSNYPHFTFRFILDNDPQDERISNLPTHGPLAGMRIPIINEHGADELRRELELLMLASEEDEEVSCLITDALWYFAQSVADSLNLRRLVLMTSSLFNFHAHVSLPQFDELGYLDPDDKTRLEEQASGFPMLKVKDIKSAYSNWQILKEILGKMIKQTKASSGVIWNSFKELEESELETVIREIPAPSFLIPLPKHLTASSSSLLDHDRSVFEWLDQQPPSSVLYVSFGSTSEVDEKDFLEIARGLVDSKQSFLWVVRPGFVKGSTWVEPLPDGFLGERGRIVKWVPQQEVLAHGAIGAFWTHSGWNSTLESVCEGVPMIFRDFGLDQPLNARYMSDVLKVGVYLENGWERGEIANAIRRVMVDEEGEYIRQNARVLKQKADVSLMKGGSSYESLESLVSYISSL
B7: UGT76G1var44: UGT76G1 variant, mutations I335V_S375R_I407V (protein, UniProt Q6VAB4 1-458, looked up, variant I335V S375R I407V)
UDP-glycosyltransferase 76G1: MENKTETTVRRRRRIILFPVPFQGHINPILQLANVLYSKGFSITIFHTNFNKPKTSNYPHFTFRFILDNDPQDERISNLPTHGPLAGMRIPIINEHGADELRRELELLMLASEEDEEVSCLITDALWYFAQSVADSLNLRRLVLMTSSLFNFHAHVSLPQFDELGYLDPDDKTRLEEQASGFPMLKVKDIKSAYSNWQILKEILGKMIKQTKASSGVIWNSFKELEESELETVIREIPAPSFLIPLPKHLTASSSSLLDHDRTVFQWLDQQPPSSVLYVSFGSTSEVDEKDFLEIARGLVDSKQSFLWVVRPGFVKGSTWVEPLPDGFLGERGRVVKWVPQQEVLAHGAIGAFWTHSGWNSTLESVCEGVPMIFRDFGLDQPLNARYMSDVLKVGVYLENGWERGEVANAIRRVMVDEEGEYIRQNARVLKQKADVSLMKGGSSYESLESLVSYISSL
B8: UGT76G1var39: UGT76G1 variant, mutations F22Y_F41L_V366I (protein, UniProt Q6VAB4 1-458, looked up, variant F22Y F41L V366I)
UDP-glycosyltransferase 76G1: MENKTETTVRRRRRIILFPVPYQGHINPILQLANVLYSKGLSITIFHTNFNKPKTSNYPHFTFRFILDNDPQDERISNLPTHGPLAGMRIPIINEHGADELRRELELLMLASEEDEEVSCLITDALWYFAQSVADSLNLRRLVLMTSSLFNFHAHVSLPQFDELGYLDPDDKTRLEEQASGFPMLKVKDIKSAYSNWQILKEILGKMIKQTKASSGVIWNSFKELEESELETVIREIPAPSFLIPLPKHLTASSSSLLDHDRTVFQWLDQQPPSSVLYVSFGSTSEVDEKDFLEIARGLVDSKQSFLWVVRPGFVKGSTWVEPLPDGFLGERGRIVKWVPQQEVLAHGAIGAFWTHSGWNSTLESICEGVPMIFSDFGLDQPLNARYMSDVLKVGVYLENGWERGEIANAIRRVMVDEEGEYIRQNARVLKQKADVSLMKGGSSYESLESLVSYISSL
B9: UGT76G1var42: UGT76G1 variant, mutations T263S_Q266S_R334H (protein, UniProt Q6VAB4 1-458, looked up, variant T263S Q266S R334H)
UDP-glycosyltransferase 76G1: MENKTETTVRRRRRIILFPVPFQGHINPILQLANVLYSKGFSITIFHTNFNKPKTSNYPHFTFRFILDNDPQDERISNLPTHGPLAGMRIPIINEHGADELRRELELLMLASEEDEEVSCLITDALWYFAQSVADSLNLRRLVLMTSSLFNFHAHVSLPQFDELGYLDPDDKTRLEEQASGFPMLKVKDIKSAYSNWQILKEILGKMIKQTKASSGVIWNSFKELEESELETVIREIPAPSFLIPLPKHLTASSSSLLDHDRSVFSWLDQQPPSSVLYVSFGSTSEVDEKDFLEIARGLVDSKQSFLWVVRPGFVKGSTWVEPLPDGFLGERGHIVKWVPQQEVLAHGAIGAFWTHSGWNSTLESVCEGVPMIFSDFGLDQPLNARYMSDVLKVGVYLENGWERGEIANAIRRVMVDEEGEYIRQNARVLKQKADVSLMKGGSSYESLESLVSYISSL
B10: UGT76G1var45: UGT76G1 variant, mutations V279I_D301N_S389E (protein, UniProt Q6VAB4 1-458, looked up, variant V279I D301N S389E)
UDP-glycosyltransferase 76G1: MENKTETTVRRRRRIILFPVPFQGHINPILQLANVLYSKGFSITIFHTNFNKPKTSNYPHFTFRFILDNDPQDERISNLPTHGPLAGMRIPIINEHGADELRRELELLMLASEEDEEVSCLITDALWYFAQSVADSLNLRRLVLMTSSLFNFHAHVSLPQFDELGYLDPDDKTRLEEQASGFPMLKVKDIKSAYSNWQILKEILGKMIKQTKASSGVIWNSFKELEESELETVIREIPAPSFLIPLPKHLTASSSSLLDHDRTVFQWLDQQPPSSVLYISFGSTSEVDEKDFLEIARGLVNSKQSFLWVVRPGFVKGSTWVEPLPDGFLGERGRIVKWVPQQEVLAHGAIGAFWTHSGWNSTLESVCEGVPMIFSDFGLDQPLNARYMEDVLKVGVYLENGWERGEIANAIRRVMVDEEGEYIRQNARVLKQKADVSLMKGGSSYESLESLVSYISSL

Assay: Directed evolution of UGT76G1, Rebaudioside D to Rebaudioside M, round 1 (Example 26)
Type: biochemical
Conditions: 100 μL fresh lysate, 0.5 mM Rebaudioside D, 30° C., pH 7.2
Description: Lysis was performed by addition of Bugbuster® Master mix (Novagen®) to the thawed cells and the lysate was recovered by centrifugation. Activity tests were performed with 100 μL of fresh lysate that was added to a solution of Rebaudioside D (final concentration 0.5 mM), MgCl2 (final concentration 3 mM) and UDP-Glucose (final concentration 2.5 mM) in 50 mM phosphate buffer pH 7.2.
The reaction was allowed to run at 30° C. and samples were taken after 2, 4, 7 and 24 h. to determine conversion and initial rate by HPLC (CAD detection) using the analytical method that was described above for the transformation of Rebaudioside D to Rebaudioside M. The results are depicted in the following table.

Row | Molecule | initial rate [Reb M area/min] | conversion Reb D to Reb M after 24 h [%]
1 | B1 | 2.8E+07 | –
2 | B2 | 9.4E+06 | –
3 | B3 | 1.4E+06 | 0.8
4 | B4 | 9.8E+05 | 0.6
5 | B5 | 3.7E+06 | 8.2
6 | B6 | 3.3E+07 | –
7 | B7 | 2.3E+07 | –
8 | B8 | 3.3E+06 | 7.2
9 | B9 | 2.2E+07 | –
10 | B10 | 2.3E+07 | –
